Results taken from publication PMC10965808, “The alternative coproporphyrinogen III oxidase (CgoN) catalyzes the oxygen-independent conversion of coproporphyrinogen III into coproporphyrin III” (Frontiers in Microbiology, 2024).

T1: YtpQ (CgoN) (Priestia megaterium, UniProt D5DN20)
T1 construct: gene BMD_4814; full length, 270 residues; codon-adapted synthetic gene in pGEX-6P-1, N-terminal GST tag cut off with PreScission protease; E. coli BL21(DE3); calculated 30,781 Da; monomer (35 kDa by GPC)
T1 sequence (D5DN20 1-270): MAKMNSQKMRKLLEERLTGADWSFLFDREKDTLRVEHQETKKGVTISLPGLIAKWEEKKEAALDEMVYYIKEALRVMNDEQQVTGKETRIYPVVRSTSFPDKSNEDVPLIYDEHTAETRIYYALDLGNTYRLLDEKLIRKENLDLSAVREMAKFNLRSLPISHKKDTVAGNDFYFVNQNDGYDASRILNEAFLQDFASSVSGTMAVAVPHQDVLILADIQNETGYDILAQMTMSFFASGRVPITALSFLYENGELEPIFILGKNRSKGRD

B1: YtpQ (CgoN) (Priestia megaterium DSM 319) (protein)
chain: T1 sequence (D5DN20 1-270)
notes: full length, 270 residues; codon-adapted synthetic gene in pGEX-6P-1, N-terminal GST tag cut off with PreScission protease; E. coli BL21(DE3); calculated 30,781 Da; monomer (35 kDa by GPC)

Key:
YtpQ (CgoN) = biological target: T1, YtpQ (CgoN); test: fluorescence assay, stimulation of activity by added FAD; type: biochemical; conditions: 3 μM FAD; 1 μM enzyme; 10 μM coproporphyrinogen III; anaerobic; pH 7.2; 30°C; no menadione
purified protein = substrate: Cc1c2[nH]c(c1CCC(=O)O)Cc1[nH]c(c(CCC(=O)O)c1C)Cc1[nH]c(c(CCC(=O)O)c1C)Cc1[nH]c(c(C)c1CCC(=O)O)C2; test: purified protein; type: biochemical, Priestia megaterium; conditions: anaerobic, 3 μM FAD, 5 μM menadione as electron acceptor, 1 μM enzyme, 1-20 μM substrate, HEPES pH 7.2, 0.02% Tween 80, 30°C

| Molecule | fluorescence assay, stimulation of activity by added FAD (YtpQ (CgoN)) | Km (purified protein) [µM] | kcat (purified protein) [s⁻¹] |
| --- | --- | --- | --- |
| Cc1cc2nc3c(=O)[nH]c(=O)nc-3n(C[C@H](O)[C@H](O)[C@H](O)COP(=O)(O)OP(=O)(O)OC[C@H]3O[C@@H](n4cnc5c(N)ncnc54)[C@H](O)[C@@H]3O)c2cc1C [FAD] | FAD was identified as the electron-transferring cofactor of YtpQ | – | – |
| B1 | – | 3.95 | 0.0105 |
